Data set [1] has as its target galactosidase-PAR3 (GPAR3) fusion protein.
Data set [2] has as its target GPAR4^R47S activation site mutant fusion protein.
Data set [3] addresses GPAR3^K37S activation site mutant fusion protein.
Data set [4] addresses galactosidase-PAR1 (GPAR1) fusion protein [β-galactosidase: P00722].
The target of data set [5] is activation site mutant fusion protein GPAR1^R45S.
In data set [6] the target is galactosidase-PAR2 (GPAR2) fusion protein.
The target in data set [7] is galactosidase-PAR4 (GPAR4) fusion protein.
galactosidase-PAR4 (GPAR4) fusion protein, sequence (chain, as listed by the source, chain 1 of 2): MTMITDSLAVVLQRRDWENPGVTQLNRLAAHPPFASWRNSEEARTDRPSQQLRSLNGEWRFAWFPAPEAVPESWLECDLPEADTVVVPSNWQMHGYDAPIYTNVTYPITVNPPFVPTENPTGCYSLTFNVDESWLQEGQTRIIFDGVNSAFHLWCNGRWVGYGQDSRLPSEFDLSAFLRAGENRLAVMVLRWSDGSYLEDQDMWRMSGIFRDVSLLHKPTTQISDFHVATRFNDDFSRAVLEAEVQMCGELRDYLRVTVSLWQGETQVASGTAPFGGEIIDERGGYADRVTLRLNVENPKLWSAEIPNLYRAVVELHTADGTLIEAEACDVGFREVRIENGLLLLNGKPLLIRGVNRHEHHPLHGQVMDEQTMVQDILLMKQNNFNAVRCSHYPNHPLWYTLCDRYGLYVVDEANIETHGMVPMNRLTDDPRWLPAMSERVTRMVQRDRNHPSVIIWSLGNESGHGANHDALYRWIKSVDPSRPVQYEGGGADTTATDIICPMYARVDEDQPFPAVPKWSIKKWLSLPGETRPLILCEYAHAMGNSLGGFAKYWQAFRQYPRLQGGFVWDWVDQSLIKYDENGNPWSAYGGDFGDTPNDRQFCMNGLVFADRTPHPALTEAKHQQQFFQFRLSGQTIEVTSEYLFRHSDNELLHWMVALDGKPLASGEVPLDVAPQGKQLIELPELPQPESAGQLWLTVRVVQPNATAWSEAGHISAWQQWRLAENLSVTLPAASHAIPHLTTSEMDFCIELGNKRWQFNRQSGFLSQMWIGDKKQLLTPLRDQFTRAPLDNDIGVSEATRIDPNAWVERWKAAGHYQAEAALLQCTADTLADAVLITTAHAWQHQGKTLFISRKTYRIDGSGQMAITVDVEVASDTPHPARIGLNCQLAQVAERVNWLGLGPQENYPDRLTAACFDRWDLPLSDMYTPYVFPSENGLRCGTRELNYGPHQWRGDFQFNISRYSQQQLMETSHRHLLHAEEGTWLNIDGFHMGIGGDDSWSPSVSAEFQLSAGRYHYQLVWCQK
galactosidase-PAR4 (GPAR4) fusion protein, sequence (chain, as listed by the source, chain 2 of 2): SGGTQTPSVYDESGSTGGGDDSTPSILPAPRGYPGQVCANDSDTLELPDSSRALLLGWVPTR
Data set [8] has as its target GPAR2^R34S activation site mutant fusion protein.

galactosidase-PAR2 (GPAR2) fusion protein, sequence (chain, as listed by the source, chain 1 of 2): as the sequence (chain, as listed by the source, chain 1 of 2) above
galactosidase-PAR2 (GPAR2) fusion protein, sequence (chain, as listed by the source, chain 2 of 2): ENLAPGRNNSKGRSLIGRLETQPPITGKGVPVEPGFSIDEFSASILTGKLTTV
galactosidase-PAR3 (GPAR3) fusion protein, sequence (chain, as listed by the source, chain 1 of 2): as the sequence (chain, as listed by the source, chain 1 of 2) above
galactosidase-PAR3 (GPAR3) fusion protein, sequence (chain, as listed by the source, chain 2 of 2): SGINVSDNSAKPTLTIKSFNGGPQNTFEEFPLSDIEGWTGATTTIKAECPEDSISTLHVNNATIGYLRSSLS
galactosidase-PAR1 (GPAR1) fusion protein [β-galactosidase: P00722], sequence (P00722 whole entry, chain 1 of 2, the tested form may be a part): as the sequence (chain, as listed by the source, chain 1 of 2) above
galactosidase-PAR1 (GPAR1) fusion protein [β-galactosidase: P00722], sequence (chain, as listed by the source, chain 2 of 2): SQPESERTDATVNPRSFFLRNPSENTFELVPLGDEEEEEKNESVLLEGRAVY
GPAR4^R47S activation site mutant fusion protein, sequence (chain, as listed by the source R47S, chain 1 of 2): as the sequence (chain, as listed by the source, chain 1 of 2) above, with R47S counted along it
GPAR4^R47S activation site mutant fusion protein, sequence (chain, as listed by the source R47S, chain 2 of 2): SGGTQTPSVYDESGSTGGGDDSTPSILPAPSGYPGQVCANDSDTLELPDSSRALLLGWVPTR

B1: human single-chain tPA (protein)
chain: SYQVICRDEKTQMIYQQHQSWLRPVLRSNRVEYCWCNSGRAQCHSVPVKSCSEPRCFNGGTCQQALYFSDFVCQCPEGFAGKCCEIDTRATCYEDQGISYRGTWSTAESGAECTNWNSSALAQKPYSGRRPDAIRLGLGNHNYCRNPDRDSKPWCYVFKAGKYSSEFCSTPACSEGNSDCYFGNGSAYRGTHSLTESGASCLPWNSMILIGKVYTAQNPSAQALGLGKHNYCRNPDGDAKPWCHVLKNRRLTWEYCDVPSCSTCGLRQYSQPQFRIKGGLFADIASHPWQAAIFAKHRRSPGERFLCGGILISSCWILSAAHCFQERFPPHHLTVILGRTYRVVPGEEEQKFEVEKYIVHKEFDDDTYDNDIALLQLKSDSSRCAQESSVVRTVCLPPADLQLPDWTECELSGYGKHEALSPFYSERLKEAHVRLYPSSRCTSQHLLNRTVTDNMLCAGDTRSGGPQANLHDACQGDSGGPLVCLNDGRMTLVGIISWGLGCGQKDVPGVYTKVTNYLDWIRDNMRP
As for B1, the β-Galactosidase release rate (mmol β-Galactosidase/(molProtease * min)) is 0.03 in data set [1]; at most 0.01 in data set [2]; at most 0.01 in data set [3]; at most 0.01 in data set [4]; at most 0.01 in data set [5]; at most 0.01 in data set [6]. Further, the β-Galactosidase release rate (mmol β-Galactosidase/(molProtease * min)) in data set [7] and in data set [8] was at most 0.01 each time.

B2: human plasmin (protein)
chain: KVYLSECKTGNGKNYRGTMSKTKNGITCQKWSSTSPHRPRFSPATHPSEGLEENYCRNPDNDPQGPWCYTTDPEKRYDYCDILECEEECMHCSGENYDGKISKTMSGLECQAWDSQSPHAHGYIPSKFPNKNLKKNYCRNPDRELRPWCFTTDPNKRWELCDIPRCTTPPPSSGPTYQCLKGTGENYRGNVAVTVSGHTCQHWSAQTPHTHNRTPENFPCKNLDENYCRNPDGKRAPWCHTTNSQVRWEYCKIPSCDSSPVSTEQLAPTAPPELTPVVQDCYHGDGQSYRGTSSTTTTGKKCQSWSSMTPHRHQKTPENYPNAGLTMNYCRNPDADKGPWCFTTDPSVRWEYCNLKKCSGTEASVVAPPPVVLLPDVETPSEEDCMFGNGKGYRGKRATTVTGTPCQDWAAQEPHRHSIFTPETNPRAGLEKNYCRNPDGDVGGPWCYTTNPRKLYDYCDVPQCAAPSFDCGKPQVEPKKCPGRVVGGCVAHPHSWPWQVSLRTRFGMHFCGGTLISPEWVLTAAHCLEKSPRPSSYKVILGAHQEVNLEPHVQEIEVSRLFLEPTRKDIALLKLSSPAVITDKVIPACLPSPNYVVADRTECFITGWGETQGTFGAGLLKEAQLPVIENKVCNRYEFLNGRVQSTELCAGHLAGGTDSCQGDSGGPLVCFEKDKYILQGVTSWGLGCARPNKPGVYVRVSRFVTWIEGVMRNN
For the protein B2, in data set [1], the “activity on GPAR3, against thrombin” value is given as “about 120 times less active than thrombin”. The β-Galactosidase release rate (mmol β-Galactosidase/(molProtease * min)) in data set [1] came to 0.34; in data set [2], 0.26; in data set [3], 0.16; in data set [4], 4.1; in data set [5], 0.29; in data set [6], 0.67. The β-Galactosidase release rate (mmol β-Galactosidase/(molProtease * min)) in data set [7] turned out to be 0.48; in data set [8], 0.35. The “cleavage efficiency, against GPAR2^R34S” value in data set [6] was “Plasmin cleaved GPAR2 two times more efficiently than GPAR2^R34S”. For the same protein, the “cleavage rate, against trypsin” value in data set [6] is given as “only at a 560 fold lower rate than trypsin”.

B3: bovine activated protein C (protein)
chain: ANSFLEELRPGNVERECSEEVCEFEEAREIFQNTEDTMAFWSFYSDGDQCEDRPSGSPCDLPCCGRGKCIDGLGGFRCDCAEGWEGRFCLHEVRFSNCSAENGGCAHYCMEEEGRRHCSCAPGYRLEDDHQLCVSKVTFPCGRLGKRMEKKRKTLKRDTNQVDQKDQLDPRIVDGQEAGWGESPWQAVLLDSKKKLVCGAVLIHVSWVLTVAHCLDSRKKLIVRLGEYDMRRWESWEVDLDIKEVIIHPNYTKSTSDNDIALLRLAKPATLSQTIVPICLPDSGLSERKLTQVGQETVVTGWGYRDETKRNRTFVLSFIKVPVVPYNACVHAMENKISENMLCAGILGDPRDACEGDSGGPMVTFFRGTWFLVGLVSWGEGCGRLYNYGVYTKVSRYLDWIYGHIKAQEAPLESQVP
For B3, the “β-Galactosidase release rate (determined in the presence of hirudin)” value in data set [1] and in data set [4] was “≦1 * 10^-2 a” each time. Also, the β-Galactosidase release rate (mmol β-Galactosidase/(molProtease * min)) in data set [2], in data set [3], in data set [5], in data set [6], in data set [7] and in data set [8] was at most 0.01 throughout.

B4: human leukocyte elastase (protein)
chain: IVGGRRARPHAWPFMVSLQLRGGHFCGATLIAPNFVMSAAHCVANVNVRAVRVVLGAHNLSRREPTRQVFAVQRIFENGYDPVNLLNDIVILQLNGSATINANVQVAQLPAQGRRLGNGVQCLAMGWGLLGRNRGIASVLQELNVTVVTSLCRRSNVCTLVRGRQAGVCFGDSGSPLVCNGLIHGIASFVRGGCASGLYPDAFAPVAQFVNWIDSIIQ
Take B4: the β-Galactosidase release rate (mmol β-Galactosidase/(molProtease * min)) in data set [1] was found to be 50; in data set [2], 11; in data set [3], 93; in data set [4], 78; in data set [5], 140; in data set [6] it was 24. Also, the β-Galactosidase release rate (mmol β-Galactosidase/(molProtease * min)) in data set [7] came to 12; in data set [8], 16.

The values above are taken from patent US20030148921.
